Laboratory results published in US20240043505A1 (UNIVERSITY OF PITTSBURGH OF THE COMMONWEALTH SYSTEM OF …, published 2024).
Read-outs that look alike come from different tables or passages of the source.

B1: Nb95 (VHH)
VHH: QVQLVESGGGLVQAGGSLRLSCAASGRTFSSYSMGWFRQAQGKEREFVATINGNGRDTYYTNSVKGRFTISRDDATNTVYLQMNSLKPEDTAIYYCAADKDVYYGYTSFPNEYEYWGQGTQVTVSS
B2: Nb12 (VHH)
VHH: HVQLVESGGGLVQAGGSLRLTCAASGGTFSTSTMDMGWFRQAPGKEREFVAVDSWNDGRAYYADSVKGRFTISRDSAKTTLYLQMNSLKPEDTAVYYCAARTERGVYDYWGRGTQVTVSS
B3: Nb34 (VHH)
VHH: DVQLVESGGGLVQAGGSLRLSCAASGFTFSNYVMYWGRQAPGKGREWVSGIDSDGSDTAYASSVKGRFTISRDNAKNTLYLQMNNLKPEDTALYYCVKSKDPYGSPWTRSEFDDYWGQGTQVTVSS
B4: Nb89 (VHH)
VHH: HVQLVESGGGLVQAGGSLRLSCAASGGTFTTFRMAWFRQTPGKEREFVAASSWGFVNYADPVKGRFTISRDNAKNTVYLEMSSLKTEDTAVYYCAARNPGTGQYDYWGQGTQVTVSS
B5: Nb21 point mutant R31D (VHH)
VHH: QVQLVESGGGLVQAGGSLRLSCAVSGLGAHDVGWFRRAPGKEREFVAAIGANGGNTNYLDSVKGRFTISRDNAKNTIYLQMNSLKPQDTAVYYCAARDIETAEYTYWGQGTQVTVSS
B6: Nb36 (VHH)
VHH: HVQLVESGGGLVQAGGSLTLTCAASGRTFSSETMDMGWFRQAPGKEREFVAADSWNDGSTYYADSVKGRFTISRDSAKNTLYLQMNSLKPEDTAVYYCAAETYSIYEKDDSWGYWGQGTQVTVSS
B7: Nb105 (VHH)
VHH: HVQLVESGGGLVQAGGSLRLSCAVSGRTFSTYGMAWFRQAPGKERDFVATITRSGETTLYADSVKGRFTISRDNAKNTVYLQMNSLKIEDTAVYYCAVRRDSSWGYSRDLFEYDYWGQGTQVTVSS

Tests used:
[1] = molecular target: T1, SARS-CoV-2 spike receptor-binding domain (RBD) (SARS-CoV-2, UniProt P0DTC2 319-541); test: indirect ELISA on coated RBD ('ELISA affinity')
[2] = molecular target: N439K
[3] = molecular target: T2, SARS-CoV-2 RBD E484K mutant (SARS-CoV-2, UniProt P0DTC2 334-527)
[4] = molecular target: Y453F
[5] = molecular target: N501Y
[6] = molecular target: A475V
[7] = molecular target: K417N
[8] = molecular target: T1, SARS-CoV-2 spike receptor-binding …
[9] = molecular target: T1, SARS-CoV-2 spike receptor-binding …; remark: listed apart in the source
[10] = molecular target: T1, SARS-CoV-2 spike receptor-binding …; remark: listed apart in the source
[11] = molecular target: N501Y; remark: listed apart in the source
[12] = molecular target: T1, SARS-CoV-2 spike receptor-binding …; test: SPR (Biacore 3000), RBD immobilised
[13] = molecular target: T2, SARS-CoV-2 RBD E484K mutant; test: ELISA
[14] = molecular target: T1, SARS-CoV-2 spike receptor-binding …; test: ELISA
[15] = molecular target: T1, SARS-CoV-2 spike receptor-binding …; remark: listed apart in the source
[16] = molecular target: T1, SARS-CoV-2 spike receptor-binding …; remark: listed apart in the source

Row | Binder | IC50 [1] [nM] | binding affinity fold change relative to RBD WT [2] [fold] | binding affinity fold change relative to RBD WT [3] [fold] | binding affinity fold change relative to RBD WT [4] [fold] | binding affinity fold change relative to RBD WT [5] [fold] | binding affinity fold change relative to RBD WT [6] [fold] | binding affinity fold change relative to RBD WT [7] [fold] | IC50 [8] [nM] | other results
1 | B1 | 2.28 | -2.19 | 1.15 | -1.31 | 1.37 | 1.21 | 1.11 | 6.05 | EC50 (read off the curve) [9]: ~6 nM
2 | B2 | 539 |  |  |  |  |  |  |  | 
3 | B3 | 0.47 | 1.18 | 1.07 | 1.2 | -5.79 | -1 | -1.96 | 0.63 | EC50 (read off the curve) [10]: ~1 nM; EC50 (read off the curve) [11]: ~7 nM
4 | B4 | 1.09 |  |  |  |  |  |  |  | Kd [12]: 0.108 nM; koff [12]: 0.000624 s⁻¹; kon [12]: 5.78e+06 M⁻¹ s⁻¹
5 | B5 |  |  |  |  |  |  |  |  | binding result [13]: no binding; binding result [14]: no binding
6 | B6 | 1.04 | 1.43 | 1.29 | 1.32 | 1.35 | -1.13 | -2.94 | 1.7 | EC50 (read off the curve) [15]: ~3 nM
7 | B7 | 0.26 | 1.06 | 1.02 | 1.31 | -2.69 | -1.1 | -1.45 | 0.97 | EC50 (read off the curve) [16]: ~2 nM
